Patent US20240116985A1 (published 2024)
Starred links: 1 amine or outer side, 2 acyl side, 3 side chain; linkers in the order of their positions; H or OH if unused. Positions of bridges follow the written chain, without caps; N, C: chain ends. Non-standard residues stand in square brackets, D forms with d. Primed or numbered codes have the meaning given here. (CH2CMe2CO2H)TriAzDab = (S)-2-amino-4-(4-(2-carboxy-2-methylpropyl)-1H-1,2,3-triazol-1-yl)butanoic acid, CC(C)(Cc1cn(CC[C@H](N[*:1])C(=O)[*:2])nn1)C(=O)[*:3]; PyrS2″ = (S)-3-amino-1-((pent-4-en-1-yloxy)carbonyl)pyrrolidine-3-carboxylic acid (stapling residue), C=CCCCOC(=O)N1CC[C@@](N[*:1])(C(=O)[*:2])C1; (CH2CH2CO2H)TriAzDab = (S)-2-amino-4-(4-(2-carboxyethyl)-1H-1,2,3-triazol-1-yl)butanoic acid, O=C([C@H](CCn1cc(CCC(=O)[*:3])nn1)N[*:1])[*:2]; B5(16) = 2-amino-2-(pent-4-en-1-yl)hept-6-enoic acid = 2,2-bis(4-pentenyl)glycine (stitching residue), C=CCCCC(CCCC=C)(N[*:1])C(=O)[*:2]; B5(4) = 2,2-bis(4-pentenyl)glycine = 2-amino-2-(pent-4-en-1-yl)hept-6-enoic acid (stitching residue), C=CCCCC(CCCC=C)(N[*:1])C(=O)[*:2]; B5(5) = 2,2-bis(4-pentenyl)glycine, 2-amino-2-(pent-4-en-1-yl)hept-6-enoic acid (stitching residue), C=CCCCC(CCCC=C)(N[*:1])C(=O)[*:2]; B5(9) = 2-amino-2-(pent-4-en-1-yl)hept-6-enoic acid (2,2-bis(4-pentenyl)glycine), C=CCCCC(CCCC=C)(N[*:1])C(=O)[*:2]; B5(19) = 2-amino-2-(pent-4-en-1-yl)hept-6-enoic acid (bis(4-pentenyl)glycine), C=CCCCC(CCCC=C)(N[*:1])C(=O)[*:2]; d(βAsp) = O=C(O)[C@@H](CC(=O)[*:2])N[*:1]; βAsp = O=C(O)[C@H](CC(=O)[*:2])N[*:1]; Bta = N[C@@H](Cc1csc2ccccc12)C(=O)O; αAllylPro = C=CC[C@@]1(C(=O)O)CCCN1; tBuAla = CC(C)(C)C[C@H](N)C(=O)O; 3Thi = N[C@@H](Cc1ccsc1)C(=O)O; S8 = C=CCCCCCC[C@](C)(N)C(=O)O

B1: I-651 (peptide)
peptide: Ac-[αAllylPro]DI[B5(16)]DESAFQ[S8]F[Bta]Q-NH2
modifications: staple 1-4, 4-11
notes: Stapled peptide composition; earlier-eluting HPLC peak (staple isomer)
B2: I-652 (peptide)
peptide: Ac-[αAllylPro]DI[B5(16)]DESAFQ[S8]F[Bta]Q-NH2
modifications: staple 1-4, 4-11
notes: Stapled peptide composition; later-eluting HPLC peak (staple isomer)
B3: I-658 (peptide)
peptide: XDIXDEALFQXFXQ
modifications: not fully specified; As printed: Ac-PL3-Asp-Ile-B5-Asp-Glu-Ala-Leu-Phe-Gln-S8-Phe-BztA-Gln-NH2; N-terminal Ac; PL3 at 1, B5 at 4, S8 at 11 (stapled 1-4 and 4-11); BztA at 13; C-terminal NH2
notes: as for B1
B4: I-659 (peptide)
peptide: XDIXDEALFQXFXQ
modifications: not fully specified; As printed: Ac-PL3-Asp-Ile-B5-Asp-Glu-Ala-Leu-Phe-Gln-S8-Phe-BztA-Gln-NH2; N-terminal Ac; PL3 at 1, B5 at 4, S8 at 11 (stapled 1-4 and 4-11); BztA at 13; C-terminal NH2
notes: as for B2
B5: I-661 (peptide)
peptide: XDIXDEASFQXFXQ
modifications: not fully specified; As printed: Ac-PL3-Asp-Ile-B5-Asp-Glu-Ala-Ser-Phe-Gln-S8-Phe-BztA-Gln-NH2; N-terminal Ac; PL3 at 1, B5 at 4, S8 at 11 (stapled 1-4 and 4-11); BztA at 13; C-terminal NH2
notes: as for B1
B6: I-662 (peptide)
peptide: XDIXDEASFQXFXQ
modifications: not fully specified; As printed: Ac-PL3-Asp-Ile-B5-Asp-Glu-Ala-Ser-Phe-Gln-S8-Phe-BztA-Gln-NH2; N-terminal Ac; PL3 at 1, B5 at 4, S8 at 11 (stapled 1-4 and 4-11); BztA at 13; C-terminal NH2
notes: as for B2
B7: I-664 (peptide)
peptide: Ac-[αAllylPro]DI[B5(9)]DEAWFQ[S8]F[Bta]Q-NH2
modifications: staple 1-4, 4-11
notes: as for B1
B8: I-665 (peptide)
peptide: Ac-[αAllylPro]DI[B5(9)]DEAWFQ[S8]F[Bta]Q-NH2
modifications: staple 1-4, 4-11
notes: as for B2
B9: I-669 (peptide)
peptide: Ac-[αAllylPro][d(βAsp)]I[B5(9)]DEAAFQ[S8]F[Bta]Q-NH2
modifications: staple 1-4, 4-11
notes: as for B2

These binders were tested against T1, full-length beta-Catenin (Uniprot ID P35222) (Homo sapiens (Human), UniProt P35222 2-781) (assay: fluorescence polarization competition, full-length beta-catenin with 5FAM-TCF4(10-53) probe as competitor).
T1 construct: 'mature' is the nearest allowed form; also called bCat; B-Catenin
T1 sequence: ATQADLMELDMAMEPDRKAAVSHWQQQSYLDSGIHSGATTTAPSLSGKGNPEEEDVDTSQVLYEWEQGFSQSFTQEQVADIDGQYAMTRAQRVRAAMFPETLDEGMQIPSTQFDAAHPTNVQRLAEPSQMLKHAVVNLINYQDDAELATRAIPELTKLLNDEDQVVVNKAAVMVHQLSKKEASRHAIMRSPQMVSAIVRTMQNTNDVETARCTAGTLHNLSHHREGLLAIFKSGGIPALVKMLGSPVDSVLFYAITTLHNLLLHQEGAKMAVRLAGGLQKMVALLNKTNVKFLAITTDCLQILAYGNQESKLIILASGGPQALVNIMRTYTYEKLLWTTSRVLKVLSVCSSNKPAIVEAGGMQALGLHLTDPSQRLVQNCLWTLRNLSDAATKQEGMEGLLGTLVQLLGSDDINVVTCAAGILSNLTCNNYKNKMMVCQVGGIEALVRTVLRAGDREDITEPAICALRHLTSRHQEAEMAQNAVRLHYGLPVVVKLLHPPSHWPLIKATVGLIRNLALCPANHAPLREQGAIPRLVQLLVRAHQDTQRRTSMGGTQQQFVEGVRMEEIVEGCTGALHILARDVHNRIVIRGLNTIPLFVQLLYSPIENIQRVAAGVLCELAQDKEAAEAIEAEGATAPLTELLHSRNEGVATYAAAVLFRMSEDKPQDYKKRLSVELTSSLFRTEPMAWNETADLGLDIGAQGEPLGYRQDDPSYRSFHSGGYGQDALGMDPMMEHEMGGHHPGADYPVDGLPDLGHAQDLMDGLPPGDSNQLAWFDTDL
Procedure: The plate was incubated protected from light for 60 minutes at 20° C. prior to read. Reads were performed on a CLARIOstar plate reader (BMG Labtech) in duplicate, and data were fitted to a 1:1 binding model with hill slope using an in-house script. All provided concentrations are final concentrations.
B1 showed an EC50 of 186 nM.
Binder B2 has an EC50 of 72 nM.
Binder Ac-[αAllylPro]DI[B5(16)]DEWAFQ[S8]F[Bta]Q-NH2 (staple 1-4, 4-11, Stapled peptide composition) [I-655] has an EC50 of 183 nM.
In the case of B3, the EC50 is reported as 546 nM.
With B4 the EC50 was 430 nM.
Binder Ac-[αAllylPro]DI[B5(19)]DEAFFQ[S8]F[Bta]Q-NH2 (staple 1-4, 4-11, Stapled peptide composition) [I-660] has an EC50 of 544 nM.
In the case of B5, the EC50 is reported as 45 nM.
For B6, the EC50 was 26 nM.
In the case of Ac-[αAllylPro]DI[B5(19)]DEAQFQ[S8]F[Bta]Q-NH2 (staple 1-4, 4-11, Stapled peptide composition) [I-663], the EC50 is reported as 43 nM.
For B7, the EC50 was 996 nM.
Binder B8 has an EC50 of 923 nM.
B9 was tested, and the EC50 was 451 nM.
In the case of Ac-[αAllylPro]DI[B5(9)][βAsp]EAAFQ[S8]F[Bta]Q-NH2 (staple 1-4, 4-11, Stapled peptide composition) [I-673], the EC50 is reported as 5000 nM.
Work on Ac-[αAllylPro]DI[B5(5)][d(βAsp)]EAAFQ[S8]F[Bta]Q-NH2 (staple 1-4, 4-11, Stapled peptide composition) [I-674] yielded an EC50 of 5000 nM.

These binders were tested against T2, Bcat-Halo (UniProt P35222 1-781) (assay: cell-based or functional assay).
T2 sequence (looked up): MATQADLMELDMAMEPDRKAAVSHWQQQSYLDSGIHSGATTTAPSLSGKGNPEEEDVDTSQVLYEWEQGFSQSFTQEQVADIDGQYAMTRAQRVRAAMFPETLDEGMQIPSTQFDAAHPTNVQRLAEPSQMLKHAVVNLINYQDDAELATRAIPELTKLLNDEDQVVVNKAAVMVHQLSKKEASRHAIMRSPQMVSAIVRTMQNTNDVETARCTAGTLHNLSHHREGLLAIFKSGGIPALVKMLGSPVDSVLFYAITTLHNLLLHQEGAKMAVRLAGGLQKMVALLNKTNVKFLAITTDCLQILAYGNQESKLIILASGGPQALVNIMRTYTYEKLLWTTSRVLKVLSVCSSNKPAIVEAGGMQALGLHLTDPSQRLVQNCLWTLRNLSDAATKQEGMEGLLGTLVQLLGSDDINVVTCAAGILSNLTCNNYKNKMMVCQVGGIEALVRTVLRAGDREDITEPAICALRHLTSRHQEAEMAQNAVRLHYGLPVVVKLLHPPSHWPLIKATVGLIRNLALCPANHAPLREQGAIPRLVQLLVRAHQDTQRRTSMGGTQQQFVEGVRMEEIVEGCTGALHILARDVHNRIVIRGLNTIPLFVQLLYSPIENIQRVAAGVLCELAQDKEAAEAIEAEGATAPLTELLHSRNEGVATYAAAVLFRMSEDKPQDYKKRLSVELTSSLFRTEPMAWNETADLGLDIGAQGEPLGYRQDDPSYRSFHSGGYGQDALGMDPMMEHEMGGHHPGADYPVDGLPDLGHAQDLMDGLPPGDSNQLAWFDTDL
With Ac-[αAllylPro]D[tBuAla][B5(4)]D[(CH2CH2CO2H)TriAzDab]AAFL[PyrS2″][3Thi][Bta]Q-NH2 (staple 1-4, 4-11) [I-2076] the “NanoBRET Abs IC50” value was 14100 nM.
In the case of Ac-[αAllylPro]D[tBuAla][B5(4)]D[(CH2CMe2CO2H)TriAzDab]AAFL[PyrS2″][3Thi][Bta]Q-NH2 (staple 1-4, 4-11) [I-2077], the “NanoBRET Abs IC50” value is reported as 12300 nM.
